This note sets out measurements from patent publication US8615311B2, “Microelectorode array, methods for preparing the same and uses thereof” (Rutgers, The State University of New Jersey, priority 2010, dated 2013).

What all share (type): cell-based, rat
One assay relates to Spinal cord explants. As to the kind of experiment: Axonal outgrowth from spinal cord explants with or without Ara-C in the medium. The note with it: 1 μm Ara-C added to NB medium, after 13 days in culture, vs standard NB medium. The protocol:
Spinal cord explants are prepared using procedures known in the art. Briefly, pregnant Sprague Dawley rats were sacrificed by CO2 inhalation at gestational day 15, and pups were removed by Cesarean section. Spinal cord was removed posteriorly and transferred to a PDMS-lined petri dish in a drop of medium. The cord is then bisected longitudinally and finely minced transversely into sections 200-300 μm thick. Sections were suspended in NB medium plus 1% GlutaMAX supplement and 2% B27 supplement. Explants were then plated onto chemically or topographically patterned glass substrates or MEAS, all of which had been adsorbed overnight with laminin at 40 μg/ml in 10 μL of medium. Explants can be precisely positioned on the growth substrate during this step. In this experiment, explants were positions with the explant body over three contacts in the top row of the MEA, allowing space for axonal outgrowth over the other contacts. After 5 min, allowing for initial adhesion, enough medium was added to just cover the explant, and it was placed in an incubator at 5% CO2 and 37 deg C. Medium was replaced every 2 days.
Explants were fixed and stained on DIV 13 to identify axonal and dendritic outgrowth. […] Five well-attached explants were imaged in each condition, and their outgrowth was quantified using ImageJ software (NIH, Bethesda Md.). […]

The test system of a further assay is Myoblasts. As to the kind of experiment: Myoblast fusion and differentiation into myotubes on surfaces adsorbed with different coatings. On the procedure: Myoblasts were isolated and cultured as previously described. Briefly, pregnant Sprague Dawley rats were sacrificed by CO2 inhalation at gestational day 21, and pups were removed by Cesarean section. Hind limb muscles were removed, and tissue was finely minced and digested (20 min at 37° C.) in PBS containing 1.5 U/ml collagenase (type D, Roche, Mannheim, Germany) and 2.5 U/ml dispase (type II, Roche, Mannheim, Germany). Single cells were separated from debris, pelleted by centrifugation, and resuspended in growth medium consisting of Ham's F-10 medium plus 20% fetal bovine serum, 1% Penicillin/Streptomycin, (all from Invitrogen, Carlsbad, Calif.) and 2.5 ng/ml human b-FGF (Promega Corporation, Madison, Wis.). Cells were then plated into 75 cm^2 flasks and incubated for 24 hrs. Adherent cells were resuspended and plated onto PDMS substrates in differentiation medium consisting of Neurobasal medium including 2% B-27 supplement, 1% Penicillin/Streptomycin and 1% GlutaMAX (all from Invitrogen, Carlsbad, Calif.) at a surface density of 200,000 cells/cm^2. Prior to seeding, surfaces were plasma treated (O2 plasma for 120 S at 50 Watts) and adsorbed overnight with 40 μg/ml laminin (Sigma Aldrich, St. Louis, Mo.). Medium changes were performed every other day.

Another assay concerns Hippocampal neurons. Kind of assay: Morphology and Sholl analysis (Bonfire program) of GFP-transfected hippocampal neurons treated with BDNF. The note with it: 25 ng/ml BDNF. On the procedure: Hippocampal neurons were isolated from E18 rat embryos and cultured. Briefly, embryos were removed by Cesarian section at 18 days gestation and decapitated. The hippocampi were manually dissected under a microscope, and cells were triturated with a fire polished glass pipette tip, counted on a hemocytometer, and plated at a density of ˜1800 cells per mm^2 on 35 mm petri plates (Corning) coated with 1 mg/ml poly-D-lysine (Sigma-Aldrich). Cultures were maintained in Neurobasal medium containing penicillin, streptomycin, glutamine, and B27 supplement (NB; all purchased from Invitrogen).
At 5 days in vitro (DIV5), cells were transfected with cDNA encoding GFP using Effectene (Qiagen). The low efficiency of this transfection technique in this cell system allows the easy identification of the processes associated with single neurons. In the BDNF treatment groups, treatment occurred from DIV7-10, during which regular NB was replaced with NB containing 25 ng/ml BDNF. […] Cultures were fixed in 4% paraformaldehyde on DIV10 and immunostained with rat anti-GFP (a gift from Dr. Shu-Chan Hsu, Rutgers University) and MAP-2 (Sigma-Aldrich). Neurons were imaged in the GFP channel at 200× using an Olympus Optical IX50 microscope with a Cooke Sensicam CCD cooled camera, fluorescence imaging system, and ImagePro software (MediaCybernetics). Images were acquired in 8-bit TIFF format, measuring 512×640 pixels.
An embodiment Bonfire program is a series of custom scripts written in, for example, MATLAB (MathWorks), although it will be appreciated that any suitable programming language may be employed. Neuronal morphology was digitized in three stages based on the initial images. In the first stage, the semi-automated tools available through the NeuronJ plugin to ImageJ (NIH, Bethesda Md.) were used to define all neurite positions (FIG. 6(A-B)). The data for each neurite are exported using NeuronJ in the form of a series of nodes with defined positions in the X-Y plane, where nodes belonging to an individual neurite segment are linked by association. These tools allow the user to guide the tracing of each neuritic segment with course resolution by hand but reduce tracing time by using a curve-fitting algorithm to fine-tune the exact location of the nodes defining the neurite position.
In the second stage, portions of the embodiment Bonfire program were used to convert the strings of nodes provided by NeuronJ into SWC format for further manipulation. NeuronStudio is then used to define the pattern of connectivity between neurite segments (FIG. 6(C)). The transformation of the data into SWC format allows for the linkage of the simple strings of nodes defined previously into more complex branching structures. After linking is complete, another component of the embodiment Bonfire program checks the resulting structure for errors and non-linkages (FIG. 6(D)), based on the assumption that each neuritic segment may only give rise to two or less daughter segments. […] These two steps fully determine the structure of each cell's neuritic arbor in 2-dimensional space and encode it in a digital format.
Using these digitized neuritic arbors, a second component of the embodiment Bonfire program was then used to perform process identification and extract the following metrics: number of primary neurites, number of secondary neurites, number of branch points per cell, number of terminal neurite tips per cell, and Sholl analysis performed with a 3.0 μm ring interval (FIG. 6(E)). Sholl analysis is performed conceptually by drawing concentric circles around a cell body at incrementally increasing radii and counting the number of times each circle crosses a neuritic segment. The number of intersections is graphed as a function of radial distance from the cell body to give a quantitative representation of how neurite density varies spatially. […]

[1] abbreviates: DIV7-10, vs untreated control, data not shown.

Consider `Nc1ccn([C@@H]2O[C@H](CO)[C@@H](O)[C@@H]2O)c(=O)n1` [Ara-C], for which, in the assay with Spinal cord explants, the “axonal outgrowth length (maximum axonal extension from explant body)” value is “did not appreciably reduce”.

On to laminin, for which, in the assay on Myoblasts (laminin adsorbed surfaces), the “myoblast fusion and maturation into striated myotubes” value is “robust”. For the same molecule, in the assay on Myoblasts (surface adsorbed with the substance, data not shown), the myotube differentiation result is recorded as “promoted myotube differentiation”.

B1: BDNF: a well-studied extracellular factor that regulates neurite morphology (protein, UniProt P23560 19-247, looked up)
Neurotrophic factor BDNF …: APMKEANIRGQGGLAYPGVRTHGTLESVNGPKAGSRGLTSLADTFEHVIEELLDEDQKVRPNEENNKDADLYTSRVMLSSQVPLEPPLLFLLEEYKNYLDAANMSMRVRRHSDPARRGELSVCDSISEWVTAADKKTAVDMSGGTVTVLEKVPVSKGQLKQYFYETKCNPMGYTKEGCRGIDKRHWNSQCRTTQSYVRALTMDSKKRIGWRFIRIDTSCVCTLTIKRGR
B1: in the assay on Hippocampal neurons (DIV7-10, vs untreated control), the “average number of branch points per cell” value was “no change between conditions”, the “distal neurites (total Sholl curve)” value is given as “no effect on distal neurites”, the “number of primary neurites (primary extensions) per cell” value is “statistically significant increase” and the “number of secondary neurites per cell” value is on record as “does not reach statistical significance”. In addition, in the assay with Hippocampal neurons (DIV7-10, vs untreated control), the “number of terminal branches per cell” value is recorded as “no change between conditions”. In addition, in the assay with Hippocampal neurons (setting [1]), the average process length entry is recorded as “no significant change” and the total arbor length result is on record as “no significant change”. The “proximal neurites within the first 35 μm of the soma (total Sholl curve)” value with Hippocampal neurons (DIV7-10, vs untreated control, global exposure in vitro) is reported as “increases proximal neurites”. In addition, the “number of Sholl intersections with terminal neurites” value in the assay on Hippocampal neurons (DIV7-10, RIT labeling scheme Sholl analysis) is on record as “increase”. In the assay with Hippocampal neurons (DIV7-10, segment identity-specific Sholl analysis), the “number of Sholl intersections with primary neurites” value is listed as “increase”.
